Source: the supplement of paper PMC10567573

B1: NECAB1 (parent)
chain: NLDTEELCEYFSQHLGEYENVLAA

Variants of: B1
Assay: protein stability index of a GFP-peptide fusion (GPS, HEK-293T) (PSI 1-6); higher = more stable
Settings: c terminus: a fixed tail appended
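Further: lentivirally expressed fusions sorted by FACS into six bins by GFP to DsRed ratio, PSI derived from sequencing read proportions per bin multiplied by bin number.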

Protein stability index of substitutions, site by site:
L22: A 4.35, P 4.25, F 1.86, R 4.39, T 4.36, N 4.36, E 4.42, Q 4.36, C 4.64, G 4.3, D 4.98, S 4.64, M 3.71, H 4.32, V 3.26, W 2.55, K 4.61, Y 3.52, I 2.53
Y18: E 5.13, Q 4.61, N 4.27, D 5.13, C 4.03, P 4.28, A 4.2, W 1.8, I 2.07, H 4.47, F 2.31, R 4.21, G 4.46, M 3.6, L 2.3, V 3.14, S 4.56, K 4.71, T 4.37
G16: M 1.99, N 1.95, Y 1.58, Q 2.71, D 2.29, E 2.04, K 1.81, W 2.29, P 2.03, F 2.27, L 1.9, H 1.48, A 2.24, S 2.48, T 2.04, I 2.14, R 1.78, V 2.07, C 1.88
A24: L 2.82, H 3.35, K 2.69, E 3.53, Y 2.59, F 2.02, G 2.22, T 2.99, M 1.92, Q 3.12, W 2.27, D 3.98, C 2.25, R 1.82, V 2.8, I 2.26, S 3.21, N 2.02, P 3.43
E19: H 1.97, D 3.98, C 1.83, L 1.82, M 2.18, F 1.97, I 4.56, K 2.67, S 2.11, R 1.84, G 2.34, N 2.87, P 2.91, T 2.07, W 1.82, V 1.53, Y 1.93, Q 2.4, A 1.66
V21: C 3.01, M 1.88, P 4.46, N 4.05, H 3.14, Y 1.98, E 4.2, S 3.88, T 3.43, L 2.76, D 4.86, R 2.97, F 2.08, W 1.68, A 2.9, K 2.07, G 4.32, I 1.83, Q 3.52
E17: A 2.12, V 2.33, G 2.81, C 2.31, K 1.34, S 2.99, W 2.11, Q 1.66, T 2.51, N 2.14, H 1.54, L 2.62, R 2.76, P 2.64, F 2.33, Y 2.65, I 2.84, D 2.88, M 2.17
A23: Q 3.68, F 2.28, E 4.5, W 1.91, P 3.65, R 2.51, V 2.21, G 2.93, I 2.02, H 2.83, N 3.98, L 1.75, K 2.17, Y 2.2, D 4.52, C 2.46, T 3.06, S 2.23, M 2.18
N20: P 2.32, H 2.67, V 4.33, R 2.25, A 2.03, M 1.93, Y 3.07, L 1.23, G 3.22, C 2.05, S 3.05, T 1.78, I 1.59, Q 2.14, E 2.74, W 2.03, K 1.94, D 2.71, F 1.66
L15: V 2.04, W 2.65, S 3.47, R 3.1, Q 4, Y 2.93, T 3.28
